Values joined by “and” are separate entries in the source; they are usually repeats but may differ in a detail not shown here. Identical values can stand only once. Like-named read-outs stand apart in the source and are kept apart here.

Sequences and labels used below:
B4: S135Q-HSPB5, full-length oligomer (natural protein)
chain: MDIAIHHPWIRRPFFPFHSPSRLFDQFFGEHLLESDLFPTSTSLSPFYLRPPSFLRAPSWFDTGLSEMRLEKDRFSVNLDVKHFSPEELKVKVLGDVIEVHGKHEERQDEHGFISREFHRKYRIPADVDPLTITQSLSSDGVLTVNGPRKQVSGPERTIPITREEKPAVTAAPKK

The target of data set [1] is B4. Kind of data set: SEC. For orientation: Size exclusion chromatography separates by hydrodynamic size, large species first.
The target in data set [2] is T1, Alpha-B-crystallin CTR CTR (Homo sapiens, UniProt P02511).
T1 chain: ERTIPITRE

Data set [3] deals with the molecule itself.
In data set [4] the target is T2, S135Q/E117C full-length HSPB5 oligomer (human, UniProt P02511 1-175, E117C | S135Q).
T2 sequence: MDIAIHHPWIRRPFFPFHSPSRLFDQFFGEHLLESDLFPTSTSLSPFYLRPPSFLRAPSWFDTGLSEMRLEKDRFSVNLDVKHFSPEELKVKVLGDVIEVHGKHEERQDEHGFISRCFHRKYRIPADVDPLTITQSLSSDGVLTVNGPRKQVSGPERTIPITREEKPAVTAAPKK
In words: cross-linking.

In data set [5] the target is T3, E117C-HSPB5, full length (oligomeric) (human, UniProt P02511 1-175, E117C).
T3 sequence: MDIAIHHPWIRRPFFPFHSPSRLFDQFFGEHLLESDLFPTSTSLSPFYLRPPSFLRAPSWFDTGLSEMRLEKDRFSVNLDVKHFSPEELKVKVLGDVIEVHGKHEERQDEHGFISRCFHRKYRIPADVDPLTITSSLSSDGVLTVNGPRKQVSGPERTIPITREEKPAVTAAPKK
In words: cross-linking.

The data set “SEC” deals with the molecule itself. In words: SEC.
Data set [6] has as its target B4. In words: SEC. This is another data set of the same source.
The target in data set [7] is T4, ΔN-HSPB6 (residues 65-160) (human, UniProt O14558 65-160).
T4 sequence: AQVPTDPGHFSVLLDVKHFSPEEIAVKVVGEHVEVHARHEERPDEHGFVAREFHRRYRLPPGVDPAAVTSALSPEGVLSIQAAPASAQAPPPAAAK
Kind of data set: NMR titration.

B1: Alpha-B-crystallin ACD ACD (protein)
chain: GLSEMRLEKDRFSVNLDVKHFSPEELKVKVLGDVIEVHGKHEERQDEHGFISREFHRKYRIPADVDPLTITSSLSSDGVLTVNGPRKQV
A word on the Kd: it is the equilibrium constant for the complex coming apart. Lower therefore signals tighter binding. Regarding B1, the binding result in data set [1] is listed as “binds”. The values for the Kd in data set [2] and in data set [3] were about 100 µM and about 2 µM, respectively.

B2: E117C-ACD-only (HSPB5 residues 64-152, E117C) (domain or fragment)
chain: GLSEMRLEKDRFSVNLDVKHFSPEELKVKVLGDVIEVHGKHEERQDEHGFISRCFHRKYRIPADVDPLTITSSLSSDGVLTVNGPRKQV
modifications: disulfide-locked dimer through C117 under nonreducing conditions
For the molecule B2, the binding result in data set [4] and in data set [5] was “binds” each time.

B3: HSPB6, full length, C46S (natural protein)
chain: MEIPVPVQPSWLRRASAPLPGLSAPGRLFDQRFGEGLLEAELAALSPTTLAPYYLRAPSVALPVAQVPTDPGHFSVLLDVKHFSPEEIAVKVVGEHVEVHARHEERPDEHGFVAREFHRRYRLPPGVDPAAVTSALSPEGVLSIQAAPASAQAPPPAAAK
In general, stoichiometry N refers to a count of units in the complex or per binding partner. Turning to B3, the “stoichiometry N” value in “SEC” is 2 and 4. Moreover, the binding result in data set [6] was “binds”.
As for B4, the binding result in the data set “SEC” is reported as “binds”.
In the case of PERTIPITREEK [HSPB5-CTR peptide PERTIPITREEK], in data set [7], the binding result is reported as “binds”.
